According to PMC1326249:

Biological target: U1A N-terminal RRM wild type (human, UniProt P09012 2-98)
Assay: SPR

Sequence of U1A N-terminal RRM wild type (P09012 2-98): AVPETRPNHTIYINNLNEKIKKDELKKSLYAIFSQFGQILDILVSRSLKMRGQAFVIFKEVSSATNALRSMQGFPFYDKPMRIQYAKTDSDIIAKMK

B1: U1hpII (structured_RNA)
RNA: AGCUUAUCCAUUGCACUCCGGAUAAGCU
Kd: 0.07 nM
